Read-outs that look alike come from different tables or passages of the source. Blank lines part the entries; values can stand above or below the molecule they belong to. Numbered stars: 1 amine (or outer) side, 2 acyl side, 3 side chain; on linkers, the order of the positions; unused ones are H or OH. Bridge positions count the residues as written; N and C are the ends. Square brackets hold non-standard residues; d marks the D form. Ends that are not written are not given here. KCOpipzaa = N6-(4-(carboxymethyl)piperazine-1-carbonyl)-L-lysine, O=C(NCCCC[C@H](N[*:1])C(=O)[*:2])N1CCN(CC(=O)[*:3])CC1; 3Pal(6-Ph) = N[C@@H](Cc1ccc(-c2ccccc2)nc1)C(=O)O; Phe(4-COOH) = N[C@@H](Cc1ccc(C(=O)O)cc1)C(=O)O; NMePhe(4-Me) = CN[C@@H](Cc1ccc(C)cc1)C(=O)O; Bip = N[C@@H](Cc1ccc(-c2ccccc2)cc1)C(=O)O; Phe(4-F) = N[C@@H](Cc1ccc(F)cc1)C(=O)O; Ala(4-THP) = N[C@@H](CC1CCOCC1)C(=O)O; cisHyp = O=C(O)[C@@H]1C[C@H](O)CN1; Hyp = O=C(O)[C@@H]1C[C@@H](O)CN1; NMeF = CN[C@@H](Cc1ccccc1)C(=O)O; Aad = N[C@@H](CCCC(=O)O)C(=O)O; Cha = N[C@@H](CC1CCCCC1)C(=O)O; βAla = NCCC(=O)O
How the values were obtained:
BMP4 [1] = biological target: T1, BMP4 (Homo sapiens, UniProt P12644); assay: Intermolecular interaction by surface plasmon resonance (SPR), immobilized BMP4; type: binding; settings: which BMP is not specified
T1 sequence (P12644 293-408): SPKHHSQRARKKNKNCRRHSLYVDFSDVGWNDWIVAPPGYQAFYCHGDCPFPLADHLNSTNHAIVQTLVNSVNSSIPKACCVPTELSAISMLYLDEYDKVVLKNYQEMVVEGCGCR
Protocol: The test of the intermolecular interaction by the surface plasmon resonance (SPR) of each of the peptides synthesized in Examples 2 and 3 against BMP4/BMP7 was performed by the following manner. The test method is specifically shown as follows.
A CM5 sensor chip (Cytiva) was inserted into a BiacoreT200 (Cytiva). Three priming runs were performed using running buffer: HBS-EP+ (Cytiva). The system was then equilibrated at a flow rate of 30 μL/min. Subsequently, 50 μL of 60 mM EDC solution (Cytiva) and 50 μL of 650 mM NHS solution (Cytiva) were mixed and were allowed to react at a flow rate of 10 μL/min for 420 seconds. The resultant was diluted with a 10 mM acetic acid solution (pH 5.0), to prepare 150 μL of 0.2 μM BMP4/BMP7 solution. The solution was allowed to react at a flow rate of 10 μL/min for 420 seconds, and the BMP4/BMP7 was immobilized in a CM5 sensor chip. After immobilization, capping was performed by reacting with 1.0 M ethanolamine aqueous solution (Cytiva) at a flow rate of 10 μL/min for 420 seconds. […]
(§1) The kinetics evaluation model was Single Cycle Kinetics, and curve fitting was performed using Biacore T200 Evaluation Software Version 3.0 (Cytiva). The binding of peptides to BMP4/BMP7 was evaluated by performing least-squares curve fitting on the obtained sensorgram to calculate the KD value.

BMP4 [2] = biological target: T2, BMP4 (UniProt P12644 293-408); assay: cell-based or functional assay
T2 sequence (looked up): T1 sequence (P12644 293-408)

BMP7 [3] = biological target: T3, BMP7 (UniProt P18075 293-431); assay: cell-based or functional assay
T3 sequence (looked up): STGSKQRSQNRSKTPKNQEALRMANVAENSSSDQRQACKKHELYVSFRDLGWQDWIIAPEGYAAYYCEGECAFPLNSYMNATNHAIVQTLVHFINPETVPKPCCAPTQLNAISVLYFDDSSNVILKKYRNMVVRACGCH

BMP4 [4] = biological target: T2, BMP4; assay: cell-based or functional assay; remark: listed apart in the source
BMP7 [5] = biological target: T3, BMP7; assay: cell-based or functional assay; remark: listed apart in the source
BMP4 [6] = biological target: T2, BMP4; assay: SPR (Biacore T200), BMP4 amine-coupled on CM5 chip, peptide as analyte, single cycle kinetics
Protocol: (§2) A CM5 sensor chip (Cytiva) was inserted into a BiacoreT200 (Cytiva). Three priming runs were performed using running buffer: HBS-EP+ (Cytiva). The system was then equilibrated at a flow rate of 30 μL/min. Subsequently, 50 μL of 60 mM EDC solution (Cytiva) and 50 μL of 650 mM NHS solution (Cytiva) were mixed and were allowed to react at a flow rate of 10 μL/min for 420 seconds. The resultant was diluted with a 10 mM acetic acid solution (pH 5.0), to prepare 150 μL of 0.2 μM BMP4/BMP7 solution. The solution was allowed to react at a flow rate of 10 μL/min for 420 seconds, and the BMP4/BMP7 was immobilized in a CM5 sensor chip. After immobilization, capping was performed by reacting with 1.0 M ethanolamine aqueous solution (Cytiva) at a flow rate of 10 μL/min for 420 seconds. A liquid prepared by dissolving each peptide at 10 mM in a DMSO solution was diluted with a running buffer so that the final concentration of the peptide-dissolved liquid would be 10 μM. Then, the peptide solutions (100 nM, 50 nM, 25 nM, 10 nM, and 5 nM) were prepared. […]
as §1

BMP7 [7] = biological target: T3, BMP7; assay: SPR (Biacore T200), BMP7 amine-coupled on CM5 chip, peptide as analyte, single cycle kinetics
Protocol: as §2, §1

BMP4 [8] = biological target: T2, BMP4; assay: cell-based or functional assay; remark: listed apart in the source
BMP7 [9] = biological target: T3, BMP7; assay: cell-based or functional assay; remark: listed apart in the source
BMP7 [10] = biological target: T3, BMP7; assay: cell-based or functional assay; remark: listed apart in the source
BMP2 = BMP2 (UniProt P12643 283-396); assay: cell-based or functional assay
Chain of BMP2 (P12643 283-396 limits assumed): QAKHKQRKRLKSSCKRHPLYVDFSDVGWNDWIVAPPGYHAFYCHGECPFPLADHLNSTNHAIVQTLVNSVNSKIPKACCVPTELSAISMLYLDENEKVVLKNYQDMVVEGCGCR

BMP5 = biological target: T4, BMP5 (UniProt P22003 317-454, limits assumed); assay: cell-based or functional assay
T4 sequence (looked up): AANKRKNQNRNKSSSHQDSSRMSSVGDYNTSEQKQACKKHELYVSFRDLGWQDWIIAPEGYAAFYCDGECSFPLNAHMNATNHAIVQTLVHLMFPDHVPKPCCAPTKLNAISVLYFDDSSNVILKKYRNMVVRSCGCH

BMP6 = biological target: T5, BMP6 (UniProt P22004 382-513, limits assumed); assay: cell-based or functional assay
T5 sequence (looked up): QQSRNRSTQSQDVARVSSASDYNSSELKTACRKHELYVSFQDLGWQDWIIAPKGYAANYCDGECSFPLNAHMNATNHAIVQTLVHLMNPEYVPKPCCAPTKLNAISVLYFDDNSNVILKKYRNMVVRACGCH

BMP7 [11] = biological target: T3, BMP7; assay: cell-based or functional assay; remark: listed apart in the source
BMP4 [12] = biological target: T2, BMP4; assay: cell-based or functional assay; remark: listed apart in the source

BMP binding activity (in words) (BMP4 [1]): confirmed to have BMP binding activity
Molecule: E-R-V-F4COO-Atp-D-R-Bph-P-Y-P-Bph-Y-F4COO-F4COO-S-C (ERV[Phe(4-COOH)][Ala(4-THP)]DR[Bip]PYP[Bip]Y[Phe(4-COOH)][Phe(4-COOH)]SC) [SEQ ID NO: 1]

IC50 (nM), SMAD1 phosphorylation in A549 cells (BMP4 [2]): 0.08 nM
IC50 (nM), SMAD1 phosphorylation in A549 cells (BMP7 [3]): 2.7 nM
IC50 (nM), SMAD1 phosphorylation in A549 cells (BMP4 [4]): 0.13 nM
IC50 (nM), SMAD1 phosphorylation in A549 cells (BMP7 [5]): 5.74 nM
Molecule: recombinant Human Noggin Protein (R&D) (from UniProt Q13253 28-232)

Kd (BMP4 [6]): 2.1 nM
Kd (BMP7 [7]): 21.7 nM
B1: BMP4 signal transduction inhibition peptide No. 84 (SEQ ID NO: 84) (peptide)
peptide: {CH2CO}-ERVYVDR[Bip]PYV[Bip]Y[Phe(4-COOH)][Phe(4-COOH)]SC[βAla][dE]-OH
modifications: thioether N-17
SMILES: CC(C)[C@@H]1NC(=O)[C@H](Cc2ccc(O)cc2)NC(=O)[C@H](C(C)C)NC(=O)[C@H](CCCNC(=N)N)NC(=O)[C@H](CCC(=O)O)NC(=O)CSC[C@@H](C(=O)NCCC(=O)N[C@H](CCC(=O)O)C(=O)O)NC(=O)[C@H](CO)NC(=O)[C@H](Cc2ccc(C(=O)O)cc2)NC(=O)[C@H](Cc2ccc(C(=O)O)cc2)NC(=O)[C@H](Cc2ccc(O)cc2)NC(=O)[C@H](Cc2ccc(-c3ccccc3)cc2)NC(=O)[C@H](C(C)C)NC(=O)[C@H](Cc2ccc(O)cc2)NC(=O)[C@@H]2CCCN2C(=O)[C@H](Cc2ccc(-c3ccccc3)cc2)NC(=O)[C@H](CCCNC(=N)N)NC(=O)[C@H](CC(=O)O)NC1=O
notes: thioether ring between N-terminal chloroacetyl and Cys17

IC50 (nM), SMAD1 phosphorylation in A549 cells (BMP4 [8]): 0.052 nM
IC50 (nM), SMAD1 phosphorylation in A549 cells (BMP7 [9]): 1.6 nM
B2: BMP4 signal transduction inhibition peptide No. 181 (peptide)
peptide: {CH2CO}-ERV[Phe(4-COOH)][Ala(4-THP)][KCOpipzaa]R[Bip]PYP[Bip]Y[Phe(4-COOH)][Phe(4-COOH)]SC[βAla][dE]-OH
modifications: thioether N-17 (inferred)

IC50 (nM), SMAD1 phosphorylation in A549 cells (BMP4 [8]): 0.053 nM
IC50 (nM), SMAD1 phosphorylation in A549 cells (BMP7 [9]): 1.4 nM
IC50, SMAD1 phosphorylation, BMP7 10 nM (BMP7 [10]): 1.43 nM
IC50, SMAD1 phosphorylation, BMP2 0.3 nM (BMP2): 0.21 nM
IC50, SMAD1 phosphorylation, BMP5 2 nM (BMP5): 9.17 nM
IC50, SMAD1 phosphorylation, BMP6 3 nM (BMP6): 3.9 nM
Kd (BMP4 [6]): 0.4 nM
Kd (BMP7 [7]): 2.3 nM
B3: BMP4 signal transduction inhibition peptide No. 177 (SEQ ID NO: 177) (peptide)
peptide: {CH2CO}-ERV[Phe(4-COOH)][Ala(4-THP)]DR[Bip]PYP[Bip]Y[Phe(4-COOH)][Phe(4-COOH)]SC[βAla][dE]-OH
modifications: thioether N-17
SMILES: CC(C)[C@@H]1NC(=O)[C@H](CCCNC(=N)N)NC(=O)[C@H](CCC(=O)O)NC(=O)CSC[C@@H](C(=O)NCCC(=O)N[C@H](CCC(=O)O)C(=O)O)NC(=O)[C@H](CO)NC(=O)[C@H](Cc2ccc(C(=O)O)cc2)NC(=O)[C@H](Cc2ccc(C(=O)O)cc2)NC(=O)[C@H](Cc2ccc(O)cc2)NC(=O)[C@H](Cc2ccc(-c3ccccc3)cc2)NC(=O)[C@@H]2CCCN2C(=O)[C@H](Cc2ccc(O)cc2)NC(=O)[C@@H]2CCCN2C(=O)[C@H](Cc2ccc(-c3ccccc3)cc2)NC(=O)[C@H](CCCNC(=N)N)NC(=O)[C@H](CC(=O)O)NC(=O)[C@H](CC2CCOCC2)NC(=O)[C@H](Cc2ccc(C(=O)O)cc2)NC1=O
notes: as for B1

IC50 (nM), SMAD1 phosphorylation in A549 cells (BMP7 [11]): 15.6 nM
IC50, SMAD1 phosphorylation, BMP5 2 nM (BMP5): 19.3 nM
IC50, SMAD1 phosphorylation, BMP6 3 nM (BMP6): 28.7 nM
B4: BMP7 signal transduction inhibition peptide SEQ ID NO: 417 (Example 6) (peptide)
peptide: {CH2CO}-[Phe(4-F)]G[NMeF]G[3Pal(6-Ph)]GDE[Cha][Aad][NMePhe(4-Me)]L[cisHyp]C[βAla][dE]-OH
modifications: thioether N-14 (inferred)

IC50 (nM), SMAD1 phosphorylation in A549 cells (BMP4 [12]): 0.073 nM
IC50 (nM), SMAD1 phosphorylation in A549 cells (BMP7 [11]): 455 nM
IC50, SMAD1 phosphorylation, BMP2 0.3 nM (BMP2): 0.45 nM
B5: BMP4 signal transduction inhibition peptide SEQ ID NO: 277 (Example 8) (peptide)
peptide: {CH2CO}-ERV[Phe(4-COOH)]V[KCOpipzaa]R[3Pal(6-Ph)][KCOpipzaa]Y[Hyp][Bip]Y[Phe(4-COOH)][Phe(4-COOH)]SCG-NH2
modifications: thioether N-17 (inferred)

Reference: patent US20250361274A1, “PEPTIDE AND PEPTIDE-CONTAINING AGENT” (PEPTIDREAM INC., priority 2022, published 2025)
